# Reference: patent US20260028424A1 (GRANULAR THERAPEUTICS, published 2026)
# Positions count from the first letter of the chain named.
# B1: 15 (antibody, V domains shown)
# VH: EVQLVQSGAEVKKPGESLKISCKGSGYRFTSYWIGWVRQMPGKGLEWMGIIYPGDSDTRYSPSFQGQVTISADKSISTAYLQWSSLKASDTAMYYCARKDYYYGTMDVWGQGTTVTVSS
# VL: DIQMTQSPSSLSASVGDRVTITCRASQGIRTNLAWFQQKPGKAPKSLIYAASSLQSGVPSRFSGSGSGTDFTLTISSLQPEDFATYYCQQYNSYPRTFGGGTKVEIK
# notes: also called variant 15; 15 VH domain
# B2: 11 (antibody, V domains shown)
# VH: B1 VH with T105A, M106F
# VL: B1 VL
# notes: also called variant 11; 11 VH domain
# B3: A5 (antibody, V domains shown)
# VH: B1 VH with T30S, W33R, I50E, D57K, G104Y, T105A
# VL: B1 VL
# notes: also called variant A5; A5 VH domain
# B4: 17 (antibody, V domains shown)
# VH: B1 VH with G104N, T105A, D107P
# VL: B1 VL
# notes: also called variant 17; 17 VH domain
# B5: C4 (antibody, V domains shown)
# VH: B1 VH with T30G, I50D, D55N, G104Y, T105A
# VL: B1 VL
# notes: also called variant C4; C4 VH domain
# B6: 10 (antibody, V domains shown)
# VH: B1 VH with T105A
# VL: B1 VL
# notes: also called variant 10; 10 VH domain
# B7: 18 (antibody, V domains shown)
# VH: B1 VH with G104D, T105A, V108Y
# VL: B1 VL
# notes: also called variant 18; 18 VH domain
# B8: 14 (antibody, V domains shown)
# VH: B1 VH with T105A, M106L
# VL: B1 VL
# notes: also called variant 14; 14 VH domain
# B9: 12 (antibody, V domains shown)
# VH: B1 VH with T105I
# VL: B1 VL
# notes: also called variant 12; 12 VH domain
# B10: 26 (antibody, V domains shown)
# VH: B1 VH with T30A, Y32H, I50E, Y60I, G104Y, T105A
# VL: B1 VL
# notes: also called variant 26; 26 VH domain
# B11: 13 (antibody, V domains shown)
# VH: B1 VH with T105S
# VL: B1 VL
# notes: also called variant 13; 13 VH domain
# B12: F6/MH1 common light chain bispecific (anti-CD203c F6 x anti-c-Kit MH1) (bispecific antibody, V domains shown)
# VH 1: QVQLVQSGAEVKKPGASVKVSCKASGYTFTDYYMNWVRQAPGQGLEWMGRIYPGSGNTYYAQKFQGRVTMTRDTSTSTVYMELSSLRSEDTAVYYCARGVYYYDYWGQGTLVTVSS
# VH 2: B1 VH with T30A, Y32N, I50E, D57N, G104Y, T105A
# VL: B1 VL
# notes: Knob-in-hole IgG1null bispecific with human Ckappa; also called F6/MH1 bispecific molecule
# B13: bispecific pair with alternative common light chain VL1: MH1 VH / 2.7_1 VH / VL1 (bispecific antibody, V domains shown)
# VH 1: B12 VH 1
# VH 2: EVQLVESGPGLVKPSETLSLTCTVSGGSISSSSYYWGWIRQPPGKGLEWIGSMYYSGSTYHNPSLKSRVIISVDTSKNQFSLKLSSVTAADTAVYYCARHYITVAGIFDYWGQGTLVTVSS
# VL: QSVLTQPPSASGTPGQRATISCRASQGIRTNLAWYQQVPGTAPKLLIYAASSLQSGVPSRFSGSKSGTSASLAISGLQSEDEADYYCQQYNSYPRTFGGGTKLTVL
# notes: Format as tested (bispecific or separate IgGs) is not described beyond 'bispecific pairs'
# B14: bispecific pair with alternative common light chain VL2: MH1 VH / 2.7_1.2 VH / VL2 (bispecific antibody, V domains shown)
# VH 1: B12 VH 1
# VH 2: B13 VH 2
# VL: B13 VL with A49S, A50N, S51N, S52Q, L53R, Q54P, S59D
# B15: bispecific pair with alternative common light chain VL4: MH1 VH / 2.14_1.2 VH / VL4 (bispecific antibody, V domains shown)
# VH 1: B12 VH 1
# VH 2: QVQLQESGPGLVKPSQTLSLTCTVSGGSISSGGYYWSWIRQHPGKGLEWIGIIYYSGSTYYNPSLKSRVTISVDTSKNQFSLKLNSVTAADTAVFYCARVAIVTTIPGGMDVWGQGTTVTVSS
# VL: EIVLTQSPDFQSVTPKEKVTITCRASQGIRTNLAWYQQKPDQSPKLLIKYASQSFSGVPSRFSGSGSGTDFTLTINSLEAEDAATYYCQQYNSYPRTFGQGTKVEIK
# B16: 23 (antibody, V domains shown)
# VH: B1 VH with T30G, I50E, D57K, G104Y, T105A
# VL: B1 VL
# notes: also called variant 23; 23 VH domain
# Biological target: T1, human CD203c expressed on the surface of KU812 cells (human, UniProt O14638 1-875)
# T1 construct: whole, on cells; also called cell-surface CD203c; cell surface CD203c on KU812 cells
# T1 sequence (looked up): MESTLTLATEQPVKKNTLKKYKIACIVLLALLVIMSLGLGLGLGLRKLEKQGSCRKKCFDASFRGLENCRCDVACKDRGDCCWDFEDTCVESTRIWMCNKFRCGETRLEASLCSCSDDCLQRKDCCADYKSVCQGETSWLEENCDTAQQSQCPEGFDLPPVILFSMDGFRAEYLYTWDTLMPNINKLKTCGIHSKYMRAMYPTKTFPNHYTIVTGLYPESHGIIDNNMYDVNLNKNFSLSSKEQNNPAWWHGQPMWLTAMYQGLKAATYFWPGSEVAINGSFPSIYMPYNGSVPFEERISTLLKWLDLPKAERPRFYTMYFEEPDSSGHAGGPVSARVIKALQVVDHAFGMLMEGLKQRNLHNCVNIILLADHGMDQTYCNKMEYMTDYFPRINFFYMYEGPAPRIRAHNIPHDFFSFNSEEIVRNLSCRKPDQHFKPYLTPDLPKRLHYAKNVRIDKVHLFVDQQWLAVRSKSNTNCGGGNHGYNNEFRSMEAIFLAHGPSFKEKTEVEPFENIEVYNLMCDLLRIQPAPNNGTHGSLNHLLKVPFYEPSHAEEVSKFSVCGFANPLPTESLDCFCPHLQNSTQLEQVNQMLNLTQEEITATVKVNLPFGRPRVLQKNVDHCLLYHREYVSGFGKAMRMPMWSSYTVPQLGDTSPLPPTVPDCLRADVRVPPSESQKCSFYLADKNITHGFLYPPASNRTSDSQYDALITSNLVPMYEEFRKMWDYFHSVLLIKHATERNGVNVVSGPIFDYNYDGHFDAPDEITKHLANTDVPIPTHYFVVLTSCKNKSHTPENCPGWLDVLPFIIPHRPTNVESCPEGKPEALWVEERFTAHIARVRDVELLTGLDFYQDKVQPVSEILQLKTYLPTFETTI
# Assay: flow cytometry on KU812 cells, MFI (530/30 - 488nm) of live cells
row,Binder,binding result
1,B1,binds
2,B2,binds
3,B3,binds
4,B4,binds
5,B5,binds
6,B6,binds

# Biological target: T2, rhesus monkey CD203c His-tagged recombinant protein (rhesus monkey, UniProt F6TH66 31-874)
# T2 construct: also called rhesus CD203c; not shown: His tag
# T2 sequence: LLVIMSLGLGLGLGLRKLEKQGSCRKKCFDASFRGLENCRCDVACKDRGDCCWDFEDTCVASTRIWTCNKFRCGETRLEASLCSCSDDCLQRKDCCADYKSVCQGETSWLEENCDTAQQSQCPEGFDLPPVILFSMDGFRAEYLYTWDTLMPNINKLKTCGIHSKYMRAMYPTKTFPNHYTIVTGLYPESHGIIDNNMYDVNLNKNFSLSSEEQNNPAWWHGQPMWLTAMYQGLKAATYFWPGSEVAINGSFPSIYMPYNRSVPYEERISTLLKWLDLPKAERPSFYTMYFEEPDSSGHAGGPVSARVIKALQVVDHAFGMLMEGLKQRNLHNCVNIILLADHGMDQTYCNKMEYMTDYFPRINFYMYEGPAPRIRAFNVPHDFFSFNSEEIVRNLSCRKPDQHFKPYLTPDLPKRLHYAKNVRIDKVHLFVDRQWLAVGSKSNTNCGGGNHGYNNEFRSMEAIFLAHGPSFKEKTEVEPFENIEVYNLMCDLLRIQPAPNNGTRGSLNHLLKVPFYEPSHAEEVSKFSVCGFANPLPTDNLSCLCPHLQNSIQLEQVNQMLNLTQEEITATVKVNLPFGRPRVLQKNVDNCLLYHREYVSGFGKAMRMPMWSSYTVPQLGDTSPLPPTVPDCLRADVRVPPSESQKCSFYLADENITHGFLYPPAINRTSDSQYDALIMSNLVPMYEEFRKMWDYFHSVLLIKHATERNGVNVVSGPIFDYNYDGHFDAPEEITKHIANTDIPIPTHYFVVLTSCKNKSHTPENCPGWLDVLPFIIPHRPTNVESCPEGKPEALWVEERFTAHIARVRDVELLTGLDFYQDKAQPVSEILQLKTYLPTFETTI
# Assay: direct binding ELISA on rhesus CD203c, absorbance (blank corrected)
row,Binder,binding result
1,B7,binds
2,B8,binds
3,B1,binds
4,B9,binds
5,B2,binds
6,B4,binds
7,B10,binds
8,B11,binds
9,B6,binds

# Biological target: c-Kit (antigen of the binding assay of FIG. 9A) (Homo sapiens (Human), UniProt P10721 26-524)
# Assay: plate binding assay on Human c-KIT, A450-A630 (ratio corrected)
# c-Kit (antigen of the binding assay of FIG. 9A), sequence (P10721 26-524 limits assumed): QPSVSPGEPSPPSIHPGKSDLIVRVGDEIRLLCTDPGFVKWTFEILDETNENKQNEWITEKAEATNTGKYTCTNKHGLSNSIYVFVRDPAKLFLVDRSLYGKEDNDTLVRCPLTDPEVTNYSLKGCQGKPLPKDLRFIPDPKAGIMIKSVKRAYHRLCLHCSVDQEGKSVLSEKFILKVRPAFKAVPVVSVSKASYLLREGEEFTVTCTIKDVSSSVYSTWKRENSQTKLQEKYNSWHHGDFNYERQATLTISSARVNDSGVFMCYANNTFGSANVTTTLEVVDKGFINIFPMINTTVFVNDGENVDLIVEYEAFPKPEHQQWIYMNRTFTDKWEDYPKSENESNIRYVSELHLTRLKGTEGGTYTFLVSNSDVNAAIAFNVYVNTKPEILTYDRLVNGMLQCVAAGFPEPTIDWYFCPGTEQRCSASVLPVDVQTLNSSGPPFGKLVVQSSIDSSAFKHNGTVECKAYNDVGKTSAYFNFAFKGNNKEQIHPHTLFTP
row,Binder,EC50 (read off the curve)
1,B12,~0.5 µg/mL
2,B13,~0.06 µg/mL
3,B14,~0.06 µg/mL
4,B15,~0.06 µg/mL

# Biological target: T3, human CD203c His-tagged recombinant protein (human, UniProt O14638 49-875, limits assumed)
# T3 construct: also called ENPP3; not shown: His tag
# T3 sequence (looked up): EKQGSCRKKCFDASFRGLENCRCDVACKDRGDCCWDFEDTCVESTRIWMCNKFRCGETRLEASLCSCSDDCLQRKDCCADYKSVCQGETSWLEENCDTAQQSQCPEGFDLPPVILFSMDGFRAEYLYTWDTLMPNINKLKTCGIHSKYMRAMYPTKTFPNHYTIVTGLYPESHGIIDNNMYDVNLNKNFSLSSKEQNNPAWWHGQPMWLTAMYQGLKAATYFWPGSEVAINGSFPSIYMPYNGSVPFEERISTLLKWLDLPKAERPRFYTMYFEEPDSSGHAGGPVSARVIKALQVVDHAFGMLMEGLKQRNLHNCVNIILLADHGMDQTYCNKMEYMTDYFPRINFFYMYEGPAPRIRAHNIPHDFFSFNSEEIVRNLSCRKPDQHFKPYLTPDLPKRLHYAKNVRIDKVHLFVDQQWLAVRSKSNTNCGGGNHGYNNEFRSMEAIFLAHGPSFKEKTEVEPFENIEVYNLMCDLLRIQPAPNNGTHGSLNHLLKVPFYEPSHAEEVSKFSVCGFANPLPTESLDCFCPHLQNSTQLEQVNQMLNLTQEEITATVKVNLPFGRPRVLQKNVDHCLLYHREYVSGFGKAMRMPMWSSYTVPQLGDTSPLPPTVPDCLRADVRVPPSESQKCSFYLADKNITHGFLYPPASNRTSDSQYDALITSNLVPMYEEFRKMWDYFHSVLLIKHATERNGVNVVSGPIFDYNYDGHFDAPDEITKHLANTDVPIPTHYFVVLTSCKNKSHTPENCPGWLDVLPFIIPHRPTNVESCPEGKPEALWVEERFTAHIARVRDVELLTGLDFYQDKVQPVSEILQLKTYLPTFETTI
# Assay: direct binding ELISA on human CD203c, absorbance (blank corrected)
Binder,binding result,EC50 (read off the curve)
B7,binds,
B8,binds,
B1,binds,
B9,,~0.04 µg/mL
B2,binds,
B3,binds,
B16,binds,
B4,binds,
B10,binds,
B11,binds,
B5,binds,
B6,binds,
